Results reported in paper PMC10834949 (2024).

Target: Aβ42 fibrils Aβ42 (Homo sapiens, UniProt P05067)
Experiment: SPR

Chain of Aβ42 fibrils Aβ42 (P05067 672-713): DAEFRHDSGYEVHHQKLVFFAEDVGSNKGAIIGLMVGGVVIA

Kd: 12.9 nM
B1: BRICHOS (proSP-C) BRICHOS (protein)
chain: TATFSIGSTGLVVYDYQQLLIAYKPAPGTCCYIMKIAPESIPSLEALTRKVHNFQMECSLQAKPAVPTSKLGQAEGRDAGSAPSGGDPAFLGMAVSTLCGEVPLYYI
